Laboratory results from US20100310640A1.

T1: HLA-DR DRB1*0701 (human)
T1 chain 1: not shown
T1 chain 2: not shown

T2: HLA-DR DRB4*0101 (human)
T2 chain 1: not shown
T2 chain 2: not shown

T3: HLA-DR DRB1*0101 (human)
T3 chain 1: not shown
T3 chain 2: not shown

T4: HLA-DR DRB1*0405 (human)
T4 chain 1: not shown
T4 chain 2: not shown

T5: HLA-DR DRB1*1101 (human)
T5 chain 1: not shown
T5 chain 2: not shown

T6: HLA-DR DRB1*1302 (human)
T6 chain 1: not shown
T6 chain 2: not shown

T7: HLA-DR DRB1*0404 (human)
T7 chain 1: not shown
T7 chain 2: not shown

T8: HLA-DR DRB1*0301 (human)
T8 chain 1: not shown
T8 chain 2: not shown

T9: HLA-DR DRB5*0101 (human)
T9 chain 1: not shown
T9 chain 2: not shown

T10: HLA-DR DRB1*1201 (human)
T10 chain 1: not shown
T10 chain 2: not shown

T11: HLA-DR DRB1*0401 (human)
T11 chain 1: not shown
T11 chain 2: not shown


How the values were obtained:
Assay in all cases: radioligand inhibition, purified HLA-DR
Conditions in all cases: remark: other sources report otherwise
HLA-DR DRB1*0701 (human) = target: T1, HLA-DR DRB1*0701 (human)
HLA-DR DRB4*0101 (human) = target: T2, HLA-DR DRB4*0101 (human)
HLA-DR DRB1*0101 (human) = target: T3, HLA-DR DRB1*0101 (human)
HLA-DR DRB1*0405 (human) = target: T4, HLA-DR DRB1*0405 (human)
HLA-DR DRB1*1101 (human) = target: T5, HLA-DR DRB1*1101 (human)
HLA-DR DRB1*1302 (human) = target: T6, HLA-DR DRB1*1302 (human)
HLA-DR DRB1*0404 (human) = target: T7, HLA-DR DRB1*0404 (human)
HLA-DR DRB1*0301 (human) = target: T8, HLA-DR DRB1*0301 (human)
HLA-DR DRB5*0101 (human) = target: T9, HLA-DR DRB5*0101 (human)
HLA-DR DRB1*1201 (human) = target: T10, HLA-DR DRB1*1201 (human)
HLA-DR DRB1*0401 (human) = target: T11, HLA-DR DRB1*0401 (human)

| Binder | IC50 (HLA-DR DRB1*0701 (human)) [nM] | IC50 (HLA-DR DRB4*0101 (human)) [nM] | IC50 (HLA-DR DRB1*0101 (human)) [nM] | IC50 (HLA-DR DRB1*0405 (human)) [nM] | IC50 (HLA-DR DRB1*1101 (human)) [nM] | IC50 (HLA-DR DRB1*1302 (human)) [nM] | IC50 (HLA-DR DRB1*0404 (human)) [nM] | IC50 (HLA-DR DRB1*0301 (human)) [nM] | IC50 (HLA-DR DRB5*0101 (human)) [nM] | IC50 (HLA-DR DRB1*1201 (human)) [nM] | IC50 (HLA-DR DRB1*0401 (human)) [nM] |
| --- | --- | --- | --- | --- | --- | --- | --- | --- | --- | --- | --- |
| LQRYSEDPTVPLPSE [Peptide 9019.0099] |  |  |  |  | 94 | 280 | 13100 | 18 |  |  |  |
| ELAVFREKVTEQHRQ [Peptide 9019.0018] |  |  |  |  |  |  |  | 8620 |  |  |  |
| APTIRGDPECHLFYN [Peptide 9019.0022] | 16800 | 2510 | 4030 |  |  | 1670 |  | 31 |  | 16900 | 1640 |
| SDSVILNVLYGPDAP [CEA.123 peptide 9019.0119 (position 226)] | 5240 | 612 |  |  | 9210 | 83 |  |  |  |  | 255 |
| TAKLTIESTPFNVAE [CEA.33 peptide 9019.0106] |  | 53 |  |  |  | 35 | 41 |  |  | 2310 |  |
| QYSWRINGIPQQHTQ [CEA.624 peptide 9019.0138] |  | 2290 | 472 | 311 | 151 |  |  |  |  |  | 43 |
| SITVSASGTSPGLSA [CEA.671 peptide 9919.0143] | 1560 |  | 2810 | 3570 | 3320 | 592 | 11 |  | 15100 |  | 75 |
| MRKIVATWMLEVCEE [Cyclin D1.56] | 249 | 281 | 764 |  |  | 356 |  |  | 17000 |  | 7950 |
| KLCIYTDNSIRPEEL [Cyclin D1.123] | 1100 | 33 | 1920 |  |  | 879 |  | 64 | 4620 |  | 90 |
| DNSIRPEELLQMELL [Cyclin D1.129] | 6650 | 87 | 4550 | 16500 |  | 939 | 2800 |  |  |  | 4680 |
| EALLESSLRQAQQNM [Cyclin D1.252] |  | 4030 | 8210 |  | 756 | 4760 | 1020 | 151 |  |  | 605 |

Continued by falling IC50 (HLA-DR DRB1*0101 (human)), values first:

| IC50 (HLA-DR DRB1*0701 (human)) [nM] | IC50 (HLA-DR DRB4*0101 (human)) [nM] | IC50 (HLA-DR DRB1*0101 (human)) [nM] | IC50 (HLA-DR DRB1*0405 (human)) [nM] | IC50 (HLA-DR DRB1*1101 (human)) [nM] | IC50 (HLA-DR DRB1*1302 (human)) [nM] | IC50 (HLA-DR DRB1*0404 (human)) [nM] | IC50 (HLA-DR DRB1*0301 (human)) [nM] | IC50 (HLA-DR DRB5*0101 (human)) [nM] | IC50 (HLA-DR DRB1*1201 (human)) [nM] | IC50 (HLA-DR DRB1*0401 (human)) [nM] | Binder |
| --- | --- | --- | --- | --- | --- | --- | --- | --- | --- | --- | --- |
| 4450 | 12100 | 384 |  |  | 5640 |  |  | 384 |  |  | TVGIMIGVLVGVALI [CEA.688 peptide 9019.05] |
| 4460 | 572 | 149 | 3860 | 6810 | 3990 |  |  |  |  |  | AKGLQSLPTHDPSPL [Peptide 9019.0098] |
| 3.7 |  | 69 |  | 52 |  | 52 |  | 31 | 3000 |  | LLTFWNPPTTAKLTI [CEA.24 peptide 9019.0105] |
|  |  | 44 | 1550 |  | 921 | 29 |  | 36 |  |  | VCGIQNSVSANRSDP [CEA.570 peptide 9012.0135] |
|  | 42 | 40 | 7820 |  | 37 |  |  | 14100 |  | 580 | SSYLSGANLNLSCHS [CEA.603 peptide 9012.0137] |
| 18 |  | 7.7 | 110 |  |  | 29 |  | 4000 |  |  | ERGPLEHLYSLHIPN [Peptide 9019.0190] |
